Measurements published in publication PMC5065529, “Wnt Signalosome Assembly by DEP Domain Swapping of Dishevelled” (Molecular Cell, 2016).
Where “and” joins values, the source holds several entries; their conditions need not be identical. Equal values may be shown once. Each block holds one molecule with its values, some of them ahead of it.

How the values were obtained:
[1] = biological target: DEP_(414–507)-GFP, minimal DEP domain of DVL2 (UniProt O14641); test: FZD5-dependent PM recruitment of DEP-GFP (cell scoring); conditions: 100 cells scored in each case, label printed as 'T526A:S529', new residue at 529 not given, read off a plot
[2] = biological target: the molecule itself; test: SEC-MALS; purified Lip-DEP_(416–511), WT or mutant, unfractionated or purified fractions; PBS, GE Superdex S-200 10/300 analytical column

other: % of cells with strong PM recruitment ([1]; parent: est. 52): 3 % of cells
other: % of cells with strong or weak PM recruitment (top of weak segment) ([1]; parent: est. 88): 24 % of cells
Molecule: SNAP-FZD5 (Frizzled 5), wild type (from UniProt Q13467) T526A:S529

B1: Lip-DEP_(416–511) L445E (domain or fragment, human, UniProt O14641 416-511, looked up)
chain: GLSVHTDMASVTKAMAAPESGLEVRDRMWEKITIPNAFLGSDVVDWLYHHVEGFPERREARKYASGLLKAGLIRHTVNKITFSEQCYYVFGDLSGG
notes: Dishevelled 2 (DVL2), human, DEP domain, residues 416-511; source: E. coli BL21-CodonPlus(DE3)-RIL, purified
binding result [2]: binds

B2: Lip-DEP_(416–511), lipoyl-tagged DEP domain of DVL2 (domain or fragment, human, UniProt O14641 416-511, looked up)
chain: GLSVHTDMASVTKAMAAPESGLEVRDRMWLKITIPNAFLGSDVVDWLYHHVEGFPERREARKYASGLLKAGLIRHTVNKITFSEQCYYVFGDLSGG
notes: Dishevelled 2 (DVL2), human, DEP domain, residues 416-511; Purified essentially as in Fiedler et al., 2011; details in the Supplemental Information; also called purified DEP; wt; source: E. coli BL21-CodonPlus(DE3)-RIL, purified (SEC)
stoichiometry N [2]: 2 and 4

B3: Lip-DEP_(416–511) MLI > AAA (domain or fragment, human, UniProt O14641 416-511, looked up)
chain: GLSVHTDMASVTKAMAAPESGLEVRDRAWAKATIPNAFLGSDVVDWLYHHVEGFPERREARKYASGLLKAGLIRHTVNKITFSEQCYYVFGDLSGG
notes: Dishevelled 2 (DVL2), human, DEP domain, residues 416-511; the hydrophobic triad M443, L445, I447 changed to alanines; also called triple-alanine mutation of the hydrophobic triad; source: E. coli BL21-CodonPlus(DE3)-RIL, purified
binding result [2]: binds
